The source of these data is patent JP2023092810A (dated 2023).

This assay concerns the target プロテインA (rProtein A Sepharose Fast Flow) (UniProt P38507 37-327). In words: rProtein A Sepharose Fast Flow column, fractions on SDS-PAGE.

Changes are numbered by the printed parent chain. Names and notes keep the numbering of the source.

B1: OKT3 scFv (scFv, V domains shown)
VH: QVQLVQSGGGVVQPGRSLRLSCKASGYTFTRYTMHWVRQAPGKGLEWIGYINPSRGYTNYNQKVKDRFTISRDNSKNTAFLQMDSLRPEDTGVYFCARYYDDHYSLDYWGQGTPVTVSS
notes: Made in E. coli; also called OKT3 scFv(コントロール); 変異導入前のOKT3 scFv; not shown: linker, VL of OKT3 (OL) and any tag
Turning to B1, the binding result is recorded as “no binding”.

B2: OKT3 scFv-D65A/D82aN (scFv, name in Kabat numbering, V domains shown)
VH: B1 VH with D66A, D84N
notes: not shown: linker, VL of OKT3 (OL) and any tag
For B2, the binding result is listed as “no binding”.

B3: OKT3 scFv-D65N/D82aN (scFv, name in Kabat numbering, V domains shown)
VH: B1 VH with D66N, D84N
notes: as for B2
In the case of B3, the binding result is given as “no binding”.
